Assay results published in US10526416B2, “Anti-HER3 antibodies and uses of same” (Yeda Research and Development Co. Ltd., priority 2014, dated 2020).

Target: HER3 (Homo sapiens, UniProt P21860)
Experiment: HER3 degradation in N87 cells (immunoblotting)
Assay type: cell-based
Conditions: 3 h, 10 μg/ml mAb
Protocol: (FIGS. 5A and 5B) The mAb ability to degrade HER3 after cell treatment was determined as follows. N87 cells were treated for 3 h at 37° C. with 10 μg/ml mAb. After cell lysis and protein extraction, the samples were subjected to immunoblotting with the indicated Ab. (FIG. 5C) The experiment shown in FIG. 5A was performed on 6 other cancer cell lines. (FIG. 5D) The mAb capacity to induce ADCC is reported. BXPC3-luc cells were incubated with the indicated mAbs and secondarily with human PBMC cells for 24 h. Cell killing was detected by measuring the luminescence after final addition of luciferine. *** […], ANOVA and post hoc tests.
NG33 and NRG abilities to degrade HER3 after cell treatment were determined as follows. […]
FIGS. 12A-D show a combination of two mAbs directed to two different epitopes of HER3. […] After ah incubation, the plate was washed 4 times with KREBS buffer, and the fluorescence intensity at 610 nm was measured using a fluorescence microplate reader. […] (FIG. 12D) The combination's capacity to modulate NRG-induced phosphorylation of HER3, AKT and ERK was evaluated using N87 cells. […] The cells were then lysed, and equal quantities of lysate protein were electrophoresed before immunoblotting, as indicated. […]
The capacity of the mAbs to decrease abundance of HER3 was determined using western blotting. […]

Chain of HER3 (P21860 20-1342): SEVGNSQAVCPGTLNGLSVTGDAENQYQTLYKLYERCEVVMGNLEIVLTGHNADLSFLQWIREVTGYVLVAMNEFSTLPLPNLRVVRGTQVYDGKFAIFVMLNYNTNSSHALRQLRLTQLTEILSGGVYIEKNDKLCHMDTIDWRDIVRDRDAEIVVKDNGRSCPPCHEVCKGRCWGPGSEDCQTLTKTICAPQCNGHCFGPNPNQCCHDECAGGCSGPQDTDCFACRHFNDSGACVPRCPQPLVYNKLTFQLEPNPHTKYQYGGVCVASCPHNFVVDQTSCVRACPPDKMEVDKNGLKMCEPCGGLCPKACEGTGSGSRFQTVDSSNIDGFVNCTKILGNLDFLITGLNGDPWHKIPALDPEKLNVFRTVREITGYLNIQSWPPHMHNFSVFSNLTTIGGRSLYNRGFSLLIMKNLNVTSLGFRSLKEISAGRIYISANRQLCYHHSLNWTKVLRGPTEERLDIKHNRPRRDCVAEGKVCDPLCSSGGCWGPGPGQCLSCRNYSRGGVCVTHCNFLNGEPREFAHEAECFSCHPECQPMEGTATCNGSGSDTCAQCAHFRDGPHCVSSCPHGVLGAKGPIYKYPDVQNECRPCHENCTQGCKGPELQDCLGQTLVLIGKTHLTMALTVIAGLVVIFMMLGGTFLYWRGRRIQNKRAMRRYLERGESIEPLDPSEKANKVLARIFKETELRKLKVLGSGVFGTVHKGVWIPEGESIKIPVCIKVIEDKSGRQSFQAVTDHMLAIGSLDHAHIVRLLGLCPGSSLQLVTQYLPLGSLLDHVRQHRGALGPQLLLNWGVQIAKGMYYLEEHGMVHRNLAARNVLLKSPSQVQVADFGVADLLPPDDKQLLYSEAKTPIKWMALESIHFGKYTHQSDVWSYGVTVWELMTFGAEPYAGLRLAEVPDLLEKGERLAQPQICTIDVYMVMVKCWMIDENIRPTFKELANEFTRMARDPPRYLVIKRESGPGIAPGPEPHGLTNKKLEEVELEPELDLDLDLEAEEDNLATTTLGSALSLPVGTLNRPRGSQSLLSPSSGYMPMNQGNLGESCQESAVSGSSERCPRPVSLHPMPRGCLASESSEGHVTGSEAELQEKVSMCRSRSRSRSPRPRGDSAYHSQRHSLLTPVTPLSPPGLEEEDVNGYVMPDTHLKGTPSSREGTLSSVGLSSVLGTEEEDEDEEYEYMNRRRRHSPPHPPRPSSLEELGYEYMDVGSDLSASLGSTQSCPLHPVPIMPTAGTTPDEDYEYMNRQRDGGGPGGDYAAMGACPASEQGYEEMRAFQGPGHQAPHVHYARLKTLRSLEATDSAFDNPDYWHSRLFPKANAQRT

B1: XC252: anti-HER3 mAb generated as described in Chen X, et al. (1996); heavy and light chain SEQ ID NOs: 49 and 53 (antibody, V domains shown)
VH: EVQLQQSGAELVRPGVSVKISCKGSGYTFTDYAMHWVKQSHAKSLEWIGVISTYYGDPRDNQKFKGKATMTVDKSSSTAYMELARLTSEDSAIYYCARGDYDWYAIDYWGQGTSVTVSS
VL: DVVMTQTPLSLPVSLGDQASISCRSSQSIVHSDGNTYLEWYLQKPGQSPKLLIYKVSNRFSGVPDRFSGSGSGTDFTLKISRVEAEDLGVYYCFQGSHVPPTFGGGTKLEIK
modifications: VH chain of XC252 polypeptide; VL chain of XC252 polypeptide
With B1 the HER3 degradation was “caused HER3 degradation, but their impact was weaker”.
